Test results published in patent publication US20160348147A1, “SYSTEMS AND DEVICES FOR PROTEASE DETECTION BASED ON ENGINEERED POLYMERS AND BIOPOLYMERS AND METHODS OF USE” (DUKE UNIVERSITY, priority 2014, published 2016).
Each block holds one molecule with its values, some of them ahead of it.

Key:
[1] = Thermal behavior by optical turbidimetry and dynamic light scattering; type: physicochemical; conditions: concentration of 100 μM
Procedure: We confirmed the purity and molecular weight of the purified peptides by electrophoresis (10-20% gradient […] SDS-PAGE, Thermo Scientific, CA) and by matrix-assisted laser desorption/ionization mass spectrometry. Mass spectrometry samples were prepared by mixing the enzymatic reaction product with sinapinic acid in 1:10 ratio. 1 μL of the sample/matrix mixture was then loaded on the grid and the measurements were performed on a Voyager-DE-Pro instrument (Applied Biosystems, Germany). To determine the concentration of the ELP-substrate fusion solutions we used a calculated extinction coefficient (Gill, S. C. & Vonhippel, P. H. Analytical Biochemistry 1989, 182, 319-326) or lyophilized the polypeptide solution. We studied the thermal behavior of the ELP-substrate fusion constructs in both proteolysis buffer (see below) and diluted human serum in the presence and absence of MMP-1 using optical turbidimetry on a temperature-programmed UV-vis spectrometer (Cary 300, Agilent Technologies). To characterize the size of the micelles and aggregates, we used single angle dynamic light scattering (DLS; DynaPro, Protein Solution).
FIG. 2 presents optical densities at 350 nm (OD350) and hydrodynamic diameters of ELP-substrate fusion as a function of temperature prior to, and after, enzymatic reaction. […] These changes are consistent with the self-assembly of ELP-substrate fusions (unimers) into micelles as the temperature is raised above the CMT (Ghoorchian, A. et al., The Journal of Physical Chemistry. B 2013, 117, 8865-8874). We note that there is a slight local maximum in both the optical density and hydrodynamic diameter at temperatures slightly above the CMT, which has been observed previously (Hassouneh, W., Duke University, PhD thesis, 2013); the origin of this small peak is, as yet, unclear.

MMP-1 = molecular target: T1, MMP-1 (Homo sapiens, UniProt P03956); experiment: Transition temperature of UCST biopolymer before and after incubation with MMP-1; type: biochemical; conditions: 25 μM, 25 ng/mL MMP-1, 37° C.
T1 sequence (P03956 100-469): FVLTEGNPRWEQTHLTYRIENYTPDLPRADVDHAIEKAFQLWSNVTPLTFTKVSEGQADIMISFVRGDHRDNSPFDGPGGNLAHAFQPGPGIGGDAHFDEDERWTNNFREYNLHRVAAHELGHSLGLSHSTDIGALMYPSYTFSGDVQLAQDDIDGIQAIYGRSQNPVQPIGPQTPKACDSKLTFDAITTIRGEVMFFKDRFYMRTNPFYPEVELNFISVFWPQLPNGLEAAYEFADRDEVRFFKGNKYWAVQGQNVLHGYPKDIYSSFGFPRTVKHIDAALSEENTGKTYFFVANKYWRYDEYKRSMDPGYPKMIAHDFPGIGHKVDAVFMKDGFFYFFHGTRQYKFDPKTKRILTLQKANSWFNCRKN
Excerpt: To exemplify the use of UCST peptides, we changed our system by incorporating a number of UCST biopolymers with the MMP-1 substrate, for example: M(YPSDGRGQ)40YGDGQ VPMSMRGGDEGQQDDEEGY (SEQ ID NO:7; referred to herein as the A4 construct). Cleavage of the protease-sensitive peptide between S and M in this sequence at a constant temperature would increase the transition temperature, which can cause the solution to transition from clear to cloudy. The time that takes for the transition to happen depends on the enzyme concentration similar to in the manner in which the LCST, micellar-based assays described above function.
Accordingly, aggregation time can be used to estimate the enzyme concentration in an unknown solution.

active PSA = active PSA (Homo sapiens, UniProt P07288); experiment: Optical density of PSA peptide before and after incubation with active PSA; type: biochemical; conditions: 100 μM, 20 ng/mL active PSA, protease buffer, 37° C., 2 hours
Sequence of active PSA (P07288 25-261): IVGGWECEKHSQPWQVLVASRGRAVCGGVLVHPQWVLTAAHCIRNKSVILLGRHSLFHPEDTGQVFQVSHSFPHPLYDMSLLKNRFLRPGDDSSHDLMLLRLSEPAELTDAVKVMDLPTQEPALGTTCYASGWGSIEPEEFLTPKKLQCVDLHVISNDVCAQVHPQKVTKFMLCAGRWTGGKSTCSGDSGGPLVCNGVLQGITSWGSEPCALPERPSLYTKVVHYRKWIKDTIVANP
Procedure: We designed a number of genes and replaced the MMP-1 sensitive peptide described above with a PSA-sensitive peptide sequence. One such example is: M(GVGVP)60[…] (SEQ ID NO:6; referred to herein as PSA peptide). Optical density measurements of 100 μM solution of PSA peptide were obtained prior to and after incubation with 20 ng/mL active PSA in protease buffer at 37° C. for 2 hours.

[2] = molecular target: T2, Human MMP-1 catalytic domain (Homo sapiens, UniProt P03956); experiment: Time-dependent aggregation (OD350) of ELP-substrate fusion with MMP-1 in proteolysis buffer; type: biochemical; conditions: 50 nM MMP-1 inhibitor added prior to 50 ng/mL (2.5 nM) MMP-1; ELP-substrate fusion 100 μM, 40° C., protease buffer; even after 900 minutes
T2 construct: Human MMP-1 catalytic domain (recombinant, produced in E. coli, 19.9 kDa, >95% purity); purchased Enzo Life Sciences (Farmingdale, N.Y.); host or cells: E. coli
T2 sequence (P03956 100-269 limits assumed): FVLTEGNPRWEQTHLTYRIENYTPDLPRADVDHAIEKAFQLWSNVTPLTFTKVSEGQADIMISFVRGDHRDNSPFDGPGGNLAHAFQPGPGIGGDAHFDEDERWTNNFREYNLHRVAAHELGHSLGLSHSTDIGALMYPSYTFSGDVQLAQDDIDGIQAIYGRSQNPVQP

[3] = tested on: endogenous MMP-1 in human serum; experiment: Time-dependent aggregation (OD350) of ELP-substrate fusion in diluted human serum (40%); type: biochemical; conditions: diluted serum, without any added MMP-1, after 400 minutes, 37° C.
Procedure: We performed the proteolysis reactions either in 100% protease buffer or in a mixture of human serum and buffer (40% (v/v) serum, 50% (v/v) buffer, 10% (v/v) ELP-substrate solution in water). The proteolysis buffer (100 mM HEPES, CaCl2 20 mM, MgCl2 1.0 mM, ZnCl2 100 μM, NaCl 0.5 M for diluted serum and 0.1 M for buffer solutions) was made experimentally in our lab based on previously published assays (Patterson, J. & Hubbell, J. A. Biomaterials 2010, 31, 7836-7845; Turk, B. E. et al., Nature Biotechnology 2001, 19, 661-667; Lowe, S. B. et al., Acs Nano 2012, 6, 851-857). We investigated proteolysis in two ways. In the first approach, we incubated solutions of the ELP-substrate fusion with MMP-1 (100 ng/mL) for 12 h at 40° C. temperature and measured the optical density at 350 nm (OD350) before and after the incubation. In the second approach, we incubated the ELP-substrate fusion with varying concentrations of MMP-1 (0.02 ng/mL to 200 ng/mL) in buffer or in diluted human serum, at 40° C. or 37° C. respectively, a temperature that is above the CMT of the ELP, and monitored the changes OD350 as a function of time (kinetic study). For the kinetic studies, we added the enzyme to the solution after the optical density of the solution reached a steady-state value and repeated the experiments at least three times. […]

Molecule: (GVGVP)60 [reference compound]
- soluble unimer-aggregate Tt [1]: ≈ 37 °C

- transition temperature prior to and after incubation with MMP-1 (MMP-1): change in transition temperature
Molecule: M(YPSDGRGQ)40YGDGQ VPMSMRGGDEGQQDDEEGY (MYPSDGRGQYGDGQVPMSMRGGDEGQQDDEEGY) [A4 construct, MMP-sensitive-UCST biopolymer]

Molecule: M(GVGVP)60GDGQSSIYSQTEEQQDDEEG (MGVGVPGDGQSSIYSQTEEQQDDEEG) [PSA peptide]
- optical density after incubation with active PSA (active PSA): increase in optical density of the solution above the transition temperature

Molecule: COc1ccc(S(=O)(=O)N(CC(=O)NO)CC(C)C)cc1 [NNGH, N-isobutyl-N-(4-methoxyphenylsulfonyl)glycyl hydroxamic acid, reference compound]
- change in optical density upon addition of the inhibitor [2]: no significant change in optical density
- aggregation in diluted serum with added MMP-1 inhibitor [3]: no aggregation
